Here are results for one molecule from paper PMC9870916, “The mitochondrial inhibitor IF1 binds to the ATP synthase OSCP subunit and protects cancer cells from apoptosis” (Cell Death & Disease, 2023).

In the test the target is T1, OSCP-NT (R6-G114) (human, UniProt P48047 29-137).
T1 construct: Used unlabelled (added in excess) or 15N-labelled (observed); cleavage leaves no additional residues; also called N-terminal domain of OSCP; source: E. coli BL21(DE3), purified (Ni-HisTrap, Ulp1 cleavage, cation exchange, Superdex 75); not shown: His6-SUMO, N-terminal, cleaved
T1 sequence (looked up): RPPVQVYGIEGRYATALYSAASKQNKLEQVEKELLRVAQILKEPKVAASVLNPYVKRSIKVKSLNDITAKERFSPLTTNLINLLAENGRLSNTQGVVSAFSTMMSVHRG
The experiment in a line: NMR titration; 1H-15N SOFAST-HMQC of 15N-labelled IF1-NT without and with 15-fold molar excess of unlabelled OSCP-NT or OSCP-CT; for OSCP-NT: 30 μM IF1-NT, 450 μM OSCP-NT, 50 mM phosphate, 300 mM NaCl, pH 7.0, 7 °C. The following applies: both partners purified.

B1: IF1-NT (G1-E40) (domain or fragment, human, UniProt Q9UII2 26-65, looked up)
chain: GSDQSENVDRGAGSIREAGGAFGKREQAEEERYFRAQSRE
notes: Used 15N-labelled (observed) or unlabelled (added in excess); cleavage leaves no additional residues; also called IF1-1NT; N-terminal domain of IF1; source: E. coli BL21(DE3), purified (Ni-HisTrap, Ulp1 cleavage, second Ni-HisTrap, Superdex 75); not shown: His6-SUMO, N-terminal, cleaved
Regarding B1, the binding result is “binds”.
